The values that follow come from US20240287481A1, “POLYMERASES FOR EFFICIENT INCORPORATION OF NUCLEOTIDES WITH 3'-PHOSPHATE AND OTHER 3'-TERMINATORS” (MGI Tech Co., Ltd., priority 2021, published 2024).

The subject of assay [1] is 3′-phosphate / 2′-phosphate nucleotides. Conditions: cited from earlier work.
In assay [2] the test system is 3′ phosphate-extended primer. As to the kind of experiment: 3′ phosphate primer detection with antibodies in a microtiter plate (fluorescence). The class given is binding. Conditions: for ratio to no primer: intensity primer / no primer; for fluorescence intensity: 5 min binding, wash at 60° C. As for the experimental part:
3′ phosphate blocked nucleotides were incorporated onto the terminal position of a primer and then reacted with unlabeled or labeled antibodies. After a short reaction time of less than 5 minutes, excess antibodies were washed from the reaction well and bound antibodies detected. In the case of unlabeled antibodies, a secondary fluorescently labeled antibody or nanobody was used to bind to the primary IgG before fluorescence detection. In the case of directly labeled primary antibodies, excess un-bound antibodies were washed away and fluorescence in the reaction well measured with a fluorescence plate reader.
Under some binding and wash conditions some non-specific binding of antibody was occurring on the target. […] The interaction of magnesium with the phosphates of the DNA phosphodiester bonds may be suppressing the ability of the antibodies to react with internal phosphates but still allowing recognition of the terminal phosphate. Specific binding in the presence of magnesium was 10-27 fold higher than without primer.

The mark [3] stands for this setting: no primer (non-specific binding), 20 mM Mg buffer.
[4] abbreviates: no primer (non-specific binding), magnesium free buffer.
Where [5] appears, read: primer extended with 3′ phosphate nucleotide, 20 mM Mg buffer.
[6] abbreviates: primer extended with 3′ phosphate nucleotide, magnesium free buffer.

B1: Taq 475: Taq polymerase variant E520G, K540I, L616A (protein, UniProt P19821 1-832, looked up, variant E520G K540I L616A)
DNA polymerase I, thermostable: MRGMLPLFEPKGRVLLVDGHHLAYRTFHALKGLTTSRGEPVQAVYGFAKSLLKALKEDGDAVIVVFDAKAPSFRHEAYGGYKAGRAPTPEDFPRQLALIKELVDLLGLARLEVPGYEADDVLASLAKKAEKEGYEVRILTADKDLYQLLSDRIHVLHPEGYLITPAWLWEKYGLRPDQWADYRALTGDESDNLPGVKGIGEKTARKLLEEWGSLEALLKNLDRLKPAIREKILAHMDDLKLSWDLAKVRTDLPLEVDFAKRREPDRERLRAFLERLEFGSLLHEFGLLESPKALEEAPWPPPEGAFVGFVLSRKEPMWADLLALAAARGGRVHRAPEPYKALRDLKEARGLLAKDLSVLALREGLGLPPGDDPMLLAYLLDPSNTTPEGVARRYGGEWTEEAGERAALSERLFANLWGRLEGEERLLWLYREVERPLSAVLAHMEATGVRLDVAYLRALSLEVAEEIARLEAEVFRLAGHPFNLNSRDQLERVLFDELGLPAIGKTEKTGKRSTSAAVLGALREAHPIVEKILQYRELTILKSTYIDPLPDLIHPRTGRLHTRFNQTATATGRLSSSDPNLQNIPVRTPLGQRIRRAFIAEEGWLLVALDYSQIEARVLAHLSGDENLIRVFQEGRDIHTETASWMFGVPREAVDPLMRRAAKTINFGVLYGMSAHRLSQELAIPYEEAQAFIERYFQSFPKVRAWIEKTLEEGRRRGYVETLFGRRRYVPDLEARVKSVREAAERMAFNMPVQGTAADLMKLAMVKLFPRLEEMGARMLLQVHDELVLEAPKERAEAVARLAKEVMEGVYPLAVPLEVEVGIGEDWLSAKE
As for B1, the “incorporation of 3′-phosphate nucleotides, in words” value in assay [1] is listed as “does not incorporate 3′-phosphate nucleotides”.

B2: 2F7: rabbit monoclonal dCTP-3P antibody, SEQ ID NO: 43 and 44 (protein)
chain 1: METGLRWLLLVAVLKGVQCQSVEESGGRLVTPGTPLTLTCTVSGFSLSNYAIIWVRQAPGEGLEYIGFISRTGSINYANWAKGRFTISKTSTTVDLKITSPTTEDTATYFCARTDYFANGDIWGPGTLVTVSSGQPKAPSVFPLAPCCGDTPSSTVTLGCLVKGYLPEPVTVTWNSGTLTNGVRTFPSVRQSSGLYSLSSVVSVTSSSQPVTCNVAHPATNTKVDKTVAPSTCSKPMCPPPELPGGPSVFIFPPKPKDTLMISRTPEVTCVVVDVSQDDPEVQFTWYINNEQVRTARPPLREQQFNSTIRVVSTLPIAHQDWLRGKEFKCKVHNKALPAPIEKTISKARGQPLEPKVYTMGPPREELSSRSVSLTCMINGFYPSDISVEWEKNGKAEDNYKTTPTVLDSDGSYFLYSKLSVPTSEWQRGDVFTCSVMHEALHNHYTQKSISRSPGK
chain 2: MDTRVPTQLLGLLLLWLPGARCADVVMTQTPASVSEPVGGTVTIKCQASQSINSWLSWYQQKPGQPPKLLIYAASTLASGVPSRFKGSGSGTQFTLTISDLECADAATYFCQSYDMIVNHGAPFGGGTGVVVSGDPVAPTVLIFPPAADQVATGTVTIVCVANKYFPDVTVTWEVDGTTQTTGIENSKTPQNSADCTYNLSSTLTLTSTQYNSHKEYTCKVTQGTTSVVQSFNRGDC
modifications: dCTP-3P
As to B2, the entries for the “ratio to no primer” value in assay [2] (20 mM Mg buffer) and in assay [2] (magnesium free buffer) were 16.2 and 8.8, respectively. Further, the fluorescence intensity in assay [2] (setting [3]) was found to be 11357; in assay [2] (setting [4]), 19124; in assay [2] (setting [5]), 183669; in assay [2] (setting [6]), 167623.

B3: 12D6: rabbit monoclonal dTTP-3P antibody, SEQ ID NO: 51 and 52 (protein)
chain 1: METGLRWLLLVAVLKGVQCQSLEESGGRLVTPGTPLTLTCTVSGIDLSSYTITWVRQAPGKGLEWIGYIYVHDGATYYANWAKGRFTISRTSSTTVDLKMTSLTTEDTATYFCASGGGTTYYRIWGPGTLVTVSSGQPKAPSVFPLAPCCGDTPSSTVTLGCLVKGYLPEPVTVTWNSGTLTNGVRTFPSVRQSSGLYSLSSVVSVTSSSQPVTCNVAHPATNTKVDKTVAPSTCSKPMCPPPELPGGPSVFIFPPKPKDTLMISRTPEVTCVVVDVSQDDPEVQFTWYINNEQVRTARPPLREQQFNSTIRVVSTLPIAHQDWLRGKEFKCKVHNKALPAPIEKTISKARGQPLEPKVYTMGPPREELSSRSVSLTCMINGFYPSDISVEWEKNGKAEDNYKTTPTVLDSDGSYFLYSKLSVPTSEWQRGDVFTCSVMHEALHNHYTQKSISRSPGK
chain 2: MDTRAPTQLLGLLLLWLPGATFAQLLTQTPPSVSAPVGGTVTINCQSSQSVYGHNRLSWYQQKPGQPPKLLIYYTSTLASGVPSRFKGSGSGTQFTLTISDLECDDAATYYCAGGYNGNIYAFGGGTEVVVKGDPVAPTVLIFPPAADQVATGTVTIVCVANKYFPDVTVTWEVDGTTQTTGIENSKTPQNSADCTYNLSSTLTLTSTQYNSHKEYTCKVTQGTTSVVQSFNRGDC
modifications: dTTP-3P
On to B3, for which the “ratio to no primer” value is recorded as 20.6 in assay [2] (20 mM Mg buffer) and 1.7 in assay [2] (magnesium free buffer). The fluorescence intensity in assay [2] (setting [3]) is on record as 13278; in assay [2] (setting [4]), 206733; in assay [2] (setting [5]) it was 273502; in assay [2] (setting [6]) it was 345210.

B4: 18B10: rabbit monoclonal dATP-3P antibody, SEQ ID NO: 39 and 40 (protein)
chain 1: METGLRWLLLVAVLKGVQCQSVEESGGRLVTPGTPLTLTCTVSGIDLSSYAMGWVRQAPGKGLEWIGMISRRGTSYYASWARGRFTISKTSTTVDLKITSPTTEETATYFCARATYDDYTDLNLWGQGTLVTVSSGQPKAPSVFPLAPCCGDTPSSTVTLGCLVKGYLPEPVTVTWNSGTLTNGVRTFPSVRQSSGLYSLSSVVSVTSSSQPVTCNVAHPATNTKVDKTVAPSTCSKPMCPPPELPGGPSVFIFPPKPKDTLMISRTPEVTCVVVDVSQDDPEVQFTWYINNEQVRTARPPLREQQFNSTIRVVSTLPIAHQDWLRGKEFKCKVHNKALPAPIEKTISKARGQPLEPKVYTMGPPREELSSRSVSLTCMINGFYPSDISVEWEKNGKAEDNYKTTPTVLDSDGSYFLYSKLSVPTSEWQRGDVFTCSVMHEALHNHYTQKSISRSPGK
chain 2: MDTRAPTQLLGLLLLWLPGATFAQVLTQTPSSVSAAVGGTVTINCQSSQSVYNNNLLSWYQQKPGQPPKLLIYKTSSLASGVPSRFSGSGSGTQFTLTISGVQCDDAATYYCLGGYYSGSGWYSTFGGGTEVVVKGDPVAPTVLIFPPSADLVATGTVTIVCVANKYFPDVTVTWEVDGTTQTTGIENSKTPQNSADCTYNLSSTLTLTSTQYNSHKEYTCKVTQGTTSVVQSFNRGDC
modifications: dATP-3P
Regarding B4, the “ratio to no primer” value was determined as 27.1 in assay [2] (20 mM Mg buffer) and 3.0 in assay [2] (magnesium free buffer). For the same molecule, the fluorescence intensity in assay [2] (setting [3]) stood at 8820; in assay [2] (setting [4]), 88385; in assay [2] (setting [5]), 238771; in assay [2] (setting [6]) it was 265039.
